Experimental data as given in publication PMC8854993, “Acetylation at Lysine 86 of Escherichia coli HUβ Modulates the DNA-Binding Capability of the Protein” (Frontiers in Microbiology, 2021).

T1: HUβ (Escherichia coli BL21(DE3), UniProt P0ACF4 1-90)
T1 sequence: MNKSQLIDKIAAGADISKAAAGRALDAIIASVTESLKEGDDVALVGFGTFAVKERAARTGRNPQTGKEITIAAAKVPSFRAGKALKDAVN

B1: 30-bp duplex with 2-nt gap (dsDNA)
DNA 1: CCAACTTCCCTAACCCAGCTGCGATCCGTA
DNA 2: TACGGATCGCAGC
DNA 3: GGTTAGGGAAGTTGG
modifications: 2-nt gap in bottom strand
B2: Escherichia coli HUα (natural protein, E. coli, UniProt P0ACF0 1-90, looked up)
chain: MNKTQLIDVIAEKAELSKTQAKAALESTLAAITESLKEGDAVQLVGFGTFKVNHRAERTGRNPQTGKEIKIAAANVPAFVSGKALKDAVK
notes: hupA amplified from chromosomal DNA of E. coli BL21(DE3) with primers from the start codon to the last codon, followed by His6; No tag cleavage is described; the printed mass (10,357.5 Da observed, 10,357.8 Da calculated) appears to fit the whole protein with His6; also called HUα2 (homodimer); hupA-His6; source: E. coli BL21-AI, purified (Ni-NTA, cation exchange RESOURCE S)
B3: Escherichia coli HUβ (natural protein, E. coli, UniProt P0ACF4 1-90, looked up)
chain: T1 sequence
notes: hupB amplified from chromosomal DNA of E. coli BL21(DE3) with primers from the start codon to the last codon, followed by an XhoI site and His6; The reverse primer carries CTCGAG (XhoI) between hupB and the His codons, so Leu-Glu probably stands before His6; theoretical mass printed 10,290.7 Da; No tag cleavage is described; also called HUβ2 (homodimer); hupB-His6; source: E. coli BL21-AI, …
B4: Escherichia coli HUβ acetylated at Lys86 (natural protein, E. coli, UniProt P0ACF4 1-90, looked up)
chain: T1 sequence
modifications: acetyl-lysine at 86
notes: from pBAD hupB(K86TAG)-His6, amber codon at Lys86 read as acetyl lysine; Same construct as m2 but with acetyl-lysine at 86; theoretical mass printed 10,332.7 Da; also called HUβ(K86ac); HUβ(K86ac)2 (homodimer)
B5: Escherichia coli HUβ acetylated at Lys67 (natural protein, E. coli, UniProt P0ACF4 1-90, looked up)
chain: T1 sequence
modifications: acetyl-lysine at 67
notes: from pBAD hupB(K67TAG)-His6, amber codon at Lys67 read as acetyl lysine; Same construct as m2 but with acetyl-lysine at 67; theoretical mass printed 10,332.7 Da; also called HUβ(K67ac); HUβ(K67ac)2 (homodimer)

Columns and labels:
HUβ = target: T1, HUβ; experiment: EMSA; homodimer; 30 mM Tris pH 7.5, 100 mM NaCl, 0.02% Tween20, 0.5 mg/ml BSA; 30-bp DNA 1 µM, 18°C 10 min, 10% PAGE in TBE; long DNA 250 ng in 15 µL, 37°C 1 h, 0.5% agarose in; conditions: protein: recombinant; tags: C-terminal 6xHis; chain copies: 2; three strands; 2-nt gap in bottom strand between S16 and S17; blunt outer ends
[1] = target: the molecule itself; experiment: SEC; analytical SEC, Agilent Bio SEC-3 column in PBS (10 mM NaPO pH 7.4, 154 mM NaCl), 0.6 mg/mL protein, 20 uL injected, 0.35 mL/min, detection at 214 nm, molecular weight estimated from a standard curve; heterodimers made by mixing purified homodimers 1:1 on ice for 5 min
Escherichia coli HUα = target: B2; experiment: as above; conditions: both partners purified

binding result (Escherichia coli HUα) | Binder | binding result (HUβ) | stoichiometry N [1]
 | B1 | binds | 
 | B2 |  | 2
binds | B3 |  | 2
binds | B4 |  | 2
binds | B5 |  | 2
